B1: Gonadotropin-releasing hormone (peptide)
peptide: QHWSYGLRPGGKRDAENLIDSFQEIVKEVGQLAETQRFECTTHQPRSPLRDLKGALESLIEEETGQKKI
notes: neuronal decapeptide hormone released from hypothalamus; obtained from a vendor and used as agonist

Key:
[1] = molecular target: monkey gonadotropin-releasing hormone (GnRH) receptor (monkey); assay: whole cell radioligand binding, best CHO-K1 clone expressing the monkey GnRH receptor
[2] = molecular target: monkey gonadotropin-releasing hormone (GnRH) receptor (monkey); assay: whole cell radioligand binding, eight of the 96 neoR CHO-K1 clones screened
monkey GnRH receptor [3] = assay: Aequorin bioluminescence assay in CHO-K1 cells stably co-expressing the monkey GnRH receptor and apo-aequorin; format: cell-based; settings: CHO-K1 cells co-expressing monkey GnRHR and apo-aequorin; P1/(P1+P2) response
Protocol: To construct this dual stable cell line, the 600 bp aeq gene was cut out by EcoRI and KpnI from pcDNA3.aeq, and inserted into pIRES1hyg (Clontech Laboratories, Palo Alto, Calif.) at BamHI that was blunt-ended. The positive clones were identified by colony-hybridization using the probe of aeq. The new construct that contained aeq and hyg was transfected into monkey GnRHR-CHO-K1 cells (as Example 5). The transfectants were selected by 600 μg/ml hygromycin (Boehringer Mannheim, Indianapolis, Ind.) for 10 days, and 480 hyg^r colonies were transferred into 96-well plates. These clones were assayed for aequorin by the aequorin bioluminescence assay as described in Example 7, and many positive clones were identified. […] This clone was single cell isolated, and used for the functional evaluation of the monkey GnRH receptor by the aequorin assay.
The aequorin assay has been widely used to monitor the changes in the cytosolic Ca^2+ concentration caused by the activation of the G-protein coupled receptors. […] The plate was read immediately in a Bioluminomitor (Lumino Skan RS) for 30 seconds. […] The remaining unreacted aequorin was determined by lysing the cells with 0.1% Triton X-100 (Sigma, St. Louis, Mo.). […] The percentage of aequorin which responded to GnRH challenge was calculated as P1/(P1+P2). […]

[4] = molecular target: monkey gonadotropin-releasing hormone (GnRH) receptor (monkey); assay: cell-based or functional assay
monkey GnRH receptor [5] = assay: Phosphoinositide (PI) turnover assay in CHO-K1 cells stably expressing the monkey GnRH receptor; format: cell-based; settings: monkey GnRHR-CHO-K1 cells, 37° C., 1 hour, FIG. 7; read-out: EC50 of GnRH-stimulated PI turnover
Protocol: The ORF of the monkey GnRH receptor was subcloned into a polycistronic expression vector pIRES1.neo (Clontech Laboratories, Palo Alto, Calif.) to generate cells that stably express these receptors. In this vector, the cloned receptor cDNA and the neo gene were transcribed into one mRNA. The plasmid DNA of pIRES1.neo-mkGnRHR was transfected into CHO-K1 cells using the method of lipofectin. Transfection was carried out for overnight and the cells were split 48 hours later. G418 at 1 mg/ml was added 24 hours after splitting, and its concentration was increased to 2 mg/ml in 2-3 days. After 10 days selection by G418, colonies were picked and transferred to 24-well plates. The monkey GnRH receptor expression clones were screened by the whole cell binding assay using a radiolabeled peptide agonist of GnRH, 5-(^125Iodo-Tyr)-Buserelin (Woods Assay, Portland, Oreg.). […] After single cell isolation, the membrane from this clone was prepared, and the membrane binding assay was performed using ^125I-buserelin. […] The GnRH-stimulated PI turnover was also performed.
CHO-K1 cells stably expressing the monkey GnRH receptor are functionally coupled to phospholipase C. […] The eluate was then counted in a scintillation counter.

Molecule | fold above the background [1] [fold] | specific binding activity [1] [cpm] | specific binding, fold above the non-specific binding [2] [fold] | EC50 (monkey GnRH receptor [3]) [nM] | GnRH-stimulated PI turnover, EC50 [4] [nM] | aequorin bioluminescence assay, AUC for P1 [4] | aequorin bioluminescence assay, EC50 of GnRH [4] [nM] | aequorin bioluminescence assay, P1/(P1+P2) ratio [4] [%] | EC50 (monkey GnRH receptor [5]) [nM]
5-(125Iodo-Tyr)-Buserelin (peptide) | 5 | 645 | 3 | – | – | – | – | – | –
B1 | – | – | – | 2 | 0.43 | 1290 | 2 | 71 | 0.43

From US6380375B1, “DNA encoding monkey gonadotropin releasing hormone receptor” (Merck & Co., Inc., priority 1999, dated 2002)
